T1: human recombinant S100A9 (human), P06702
T1 chain: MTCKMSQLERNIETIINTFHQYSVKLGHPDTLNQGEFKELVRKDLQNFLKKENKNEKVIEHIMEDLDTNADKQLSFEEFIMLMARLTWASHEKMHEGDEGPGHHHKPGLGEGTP

T2: human recombinant S100A9 (human, UniProt P06702 1-114)
T2 construct: S100A9, human, recombinant; Alone it runs as a homodimer by SEC; In the 1:1 mix with S100A8 it forms the calprotectin heterotetramer; also called S100A9 homodimers; source: human recombinant, generated by the authors, purity confirmed
T2 sequence (looked up): T1 chain

B1: human recombinant S100A9, P06702 1-114 (natural protein)
chain: T1 chain
B2: human recombinant S100A8 (natural protein, UniProt P05109 1-93, looked up)
chain: MLTELEKALNSIIDVYHKYSLIKGNFHAVYRDDLKKLLETECPQYIRKKGADVWFKELDINTDGAVNFQEFLILVIKMGVAAHKKSHEESHKE
notes: S100A8, human, recombinant; Alone it runs as a homodimer by SEC; In the 1:1 mix with S100A9 it forms the calprotectin heterotetramer; also called S100A8 homodimers; S100A8/S100A8 homodimers; source: human recombinant, generated by the authors, purity confirmed

Legend:
Experiment in all cases: SEC; human recombinant S100A8, S100A9 or their 1:1 mix (CP) run as reference proteins; sizes read from the elution
[1] = target: T1, human recombinant S100A9 (human), P06702
human recombinant S100A9 = target: T2, human recombinant S100A9; details: both partners purified
[2] = target: the molecule itself

Binder	stoichiometry N [1]	binding result (human recombinant S100A9)	stoichiometry N [2]
B1	2	–	–
B2	–	binds	2
